B1: library; numbered along this chain (parent)
chain: MATDAALRRLLRLHRTEIAVAVDSAFPLLHALADHDVVPEDKFQETLHLKEKEGCPQAFHALLSWLLTQDSTAILDFWRVLFKDYNLERYGRLQPILDSFPKDVDLSQPRKGRKPPAVPKALVPPPRLPTKRKASEEARAAAPAALTPRGTASPGSQLKAKPPKKPESSAEQQRLPLGNGIQTMSASVQRAVAMSSGDVPGARGAVEGILIQQVFESGGSKKCIQVGGEFYTPSKFEDSGSGKNKARSSSGPKPLVRAKGAQGAAPGGGEARLGQQGSVPAPLALPSDPQLHQKNEDECAVCRDGGELICCDGCPRAFHLACLSPPLREIPSGTWRCSSCLQATVQEVQPRAEEPRPQEPPVETPLPPGLRSAGEEVRGPPGEPLAGMDTTLVYKHLPAPPSAAPLPGLDSSALHPLLCVGPEGQQNLAPGARCGVCGDGTDVLRCTHCAAAFHWRCHFPAGTSRPGTGLRCRSCSGDVTPAPVEGVLAPSPARLAPGPAKDDTASHEPALHRDDLESLLSEHTFDGILQWAIQSMARPAAPFPS

Variants of: B1
Assay: AIRE transcriptional activation functional score (insulin promoter-GFP; nonsense median 0, synonymous median 1) (normalised score); higher = higher AIRE activity (more reporter activation)
Details: with insulin promoter-GFP reporter in HEK293
Protocol: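 Deep mutational scan of full-length human AIRE (codon-optimized cDNA, DT-POPCode NNN libraries over three regions) integrated at a Bxb1 landing pad in HEK293 cells carrying an insulin core promoter-GFP reporter at a Flp-In site. Cells were sorted for the top 10% GFP about 14 days after transfection. Variant frequency log-ratios (select vs non-select, TileSeq) were rescaled so that the nonsense median is 0 and the synonymous median is 1, then averaged over biological replicates.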

AIRE transcriptional activation functional score of substitutions, site by site:
Q108: H -0.231, V 0.8, R 0.951, Y 1.24, D 2.03, K 0.479, E 1.66, S 0.618, I -0.272, C 0.53, G 0.482, W 0.796, N 0.625, A 0.176, T 1.35, M 2.4, L 0.0593, P 0.669, F 0.53
K111: D -0.0433, Q -0.0716, Y 1.29, G 0.901, W 0.591, T 0.947, R 0.805, N 1.36, C 1.44, S 1.18, F 0.696, I 1.36, L 1.65, A 1.84, M -0.763, V 1.37, H 0.607, E 0.792
G112: E 1.23, L 1.31, S 0.851, K 0.268, T 1.31, N 0.726, Y 0.893, R 0.278, M 0.488, Q 1.37, D 1.13, W 1.45, F 1.03, A 1.49, C 0.924, H 0.912, V 0.878, I 1.08, P 1.12
R113: H 1.08, I 1.46, E 0.975, P 0.537, C 1.3, G 0.801, D 0.648, N 1.68, S 1.02, M 0.565, T 0.935, K 1.18, F 1.12, W 0.668, A 0.951, Q 1.18, Y 0.831, L 0.951, V 0.537
P115: C 0.977, D 0.0469, E 0.792, A 0.798
L106: Y 1.27, N 0.233, R 0.112, G -0.428, P -1.47, K 0.511, Q -0.722, W 0.739, M 0.0877, S -1.04, I -1.62, T 0.979, V 0.581
R110: E 1.09, M 0.295, P 0.621, Q 0.31, V 1.21, A 1.41, C 0.426, Y 1.61, N 0.62, D 2.5, G 1.34, W 1.5, L 1.44, T 0.97, S 1.01, K 1.25, I 1.21, F 0.927
P109: T 1.54, Q 0.797, K 0.0515, F 1.16, W 0.0143, Y 0.732, D 0.988, A 0.959, L 0.821, I 0.666, N -1.94, E 0.161, S 1.1, G 0.279, R 0.676, V 0.635, M 2.55, C 0.656, H 1.28
S107: Y 0.891, H 1.33, E 0.777, W 1.49, D 0.707, G 0.704, V 1, R 1.25, A 1.04, L 1.05, P 0.096, I 1.02, N 0.000996, Q 0.12, K 0.75, C 1.12, M 1.27, T 0.785, F 0.789
K114: M 0.913, E 1.46, Y 1.51, C 1.06, D 0.131, N 0.632, I 1.03, F 0.817, T 1.19, G 0.427, L 1.03, W 1.32, A -0.00452, S 0.787, P 0.1, V 0.691, R 0.793, H 0.207, Q 0.342
